The target of experiment [1] is T1, CrkL, full-length (human) (human, UniProt P46109 1-303).
T1 construct: Monomer by sedimentation velocity and DLS (theoretical mass 33.7 kDa); Purification 'in a similar manner' as C3G would include TEV cleavage of the tag; also called Crk-like protein; wild type CrkL; source: E. coli BL21 (DE3), purified (His-tagged, purified in a similar manner as C3G)
The experiment can be described thus: fluorescence polarisation; fluorescein peptides at 0.2 µM titrated with CrkL; 20 mM Tris-HCl, 150 mM NaCl, pH 7.5, 0.1 mg/ml BSA; 1:1 model; apparent kd. The conditions noted are these: both partners purified. A general note: Fluorescence polarisation rises when a labelled molecule tumbles more slowly, as on binding a larger partner.

Experiment [2] deals with T2, CrkL (full-length) (human, UniProt P46109 1-303).
T2 construct: human CrkL, residues 1-303, in pETEV15b; also called Crk-like protein; source: E. coli BL21 (DE3), purified (IMAC, TEV digestion, SEC); not shown: His, N-terminal, cleaved
The experiment is described as follows: fluorescence polarisation; fluorescein-labelled peptide at 0.2 µM titrated with CrkL or CrkL W160S; 20 mM Tris-HCl, 150 mM NaCl, pH 7.5, 0.1 mg/ml BSA; 1:1 binding model; apparent kd. The conditions noted are these: both partners purified.

The target in experiment [3] is T3, CrkL-W160S (human, UniProt P46109 1-303, W160S).
T3 construct: human CrkL, residues 1-303, point mutant W160S, in pETEV15b; source: E. coli BL21 (DE3), purified (IMAC, TEV digestion, SEC); not shown: His, N-terminal, cleaved
The description is as above. As to conditions: both partners purified.

Experiment [4] addresses C3G-AAPA-Y554H (human, UniProt Q13905-1 4-1077, Y554H). The experiment is described as follows: ITC; single-PRM mutants of C3G in the cell titrated with full-length CrkL or CrkL-SH3N; 25 °C; 1:1 model in SEDPHAT; N is the competent fraction of C3G. As to conditions: both partners purified. (In general: ITC needs no label: the signal is the heat of the interaction.)
In experiment [5] the target is T4, Src-phosphorylated C3G-AAPA (pC3G-AAPA) (human, UniProt Q13905-1 4-1077, phosphotyrosines (phosphorylated in vitro by Src; sites not stated)).
T4 chain: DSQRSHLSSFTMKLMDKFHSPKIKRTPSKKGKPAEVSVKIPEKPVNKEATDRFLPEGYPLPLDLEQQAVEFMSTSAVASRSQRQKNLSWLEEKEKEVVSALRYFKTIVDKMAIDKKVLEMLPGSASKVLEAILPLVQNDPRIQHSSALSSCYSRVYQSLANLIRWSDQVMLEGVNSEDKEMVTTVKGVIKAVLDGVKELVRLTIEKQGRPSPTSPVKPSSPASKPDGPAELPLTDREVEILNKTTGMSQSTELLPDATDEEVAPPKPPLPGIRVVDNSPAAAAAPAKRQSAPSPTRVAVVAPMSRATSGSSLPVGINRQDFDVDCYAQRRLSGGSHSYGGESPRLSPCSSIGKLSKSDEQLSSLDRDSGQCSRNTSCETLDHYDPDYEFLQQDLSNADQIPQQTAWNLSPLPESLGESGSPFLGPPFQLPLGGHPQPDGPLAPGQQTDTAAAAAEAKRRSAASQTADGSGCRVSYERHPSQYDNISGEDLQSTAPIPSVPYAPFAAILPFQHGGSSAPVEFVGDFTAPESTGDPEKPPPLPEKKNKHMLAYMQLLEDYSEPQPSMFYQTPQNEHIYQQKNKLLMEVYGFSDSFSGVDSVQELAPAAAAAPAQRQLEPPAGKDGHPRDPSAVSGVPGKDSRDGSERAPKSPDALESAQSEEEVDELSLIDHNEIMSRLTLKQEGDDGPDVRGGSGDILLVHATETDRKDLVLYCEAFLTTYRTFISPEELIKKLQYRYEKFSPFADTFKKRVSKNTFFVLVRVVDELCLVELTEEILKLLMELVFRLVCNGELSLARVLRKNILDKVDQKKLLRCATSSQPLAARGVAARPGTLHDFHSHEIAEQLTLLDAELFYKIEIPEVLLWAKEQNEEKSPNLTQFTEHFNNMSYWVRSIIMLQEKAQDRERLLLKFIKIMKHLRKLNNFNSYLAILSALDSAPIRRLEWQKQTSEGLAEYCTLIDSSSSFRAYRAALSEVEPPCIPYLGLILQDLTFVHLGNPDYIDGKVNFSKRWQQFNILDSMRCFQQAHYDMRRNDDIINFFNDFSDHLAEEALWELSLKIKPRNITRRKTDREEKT
The description is as above. The conditions noted are these: both partners purified.

Experiment [6] has as its target T5, Src-phosphorylated C3G (pC3G), wild type (human, UniProt Q13905-1 4-1077, phosphotyrosines (phosphorylated in vitro by Src; sites not stated)).
T5 sequence (looked up): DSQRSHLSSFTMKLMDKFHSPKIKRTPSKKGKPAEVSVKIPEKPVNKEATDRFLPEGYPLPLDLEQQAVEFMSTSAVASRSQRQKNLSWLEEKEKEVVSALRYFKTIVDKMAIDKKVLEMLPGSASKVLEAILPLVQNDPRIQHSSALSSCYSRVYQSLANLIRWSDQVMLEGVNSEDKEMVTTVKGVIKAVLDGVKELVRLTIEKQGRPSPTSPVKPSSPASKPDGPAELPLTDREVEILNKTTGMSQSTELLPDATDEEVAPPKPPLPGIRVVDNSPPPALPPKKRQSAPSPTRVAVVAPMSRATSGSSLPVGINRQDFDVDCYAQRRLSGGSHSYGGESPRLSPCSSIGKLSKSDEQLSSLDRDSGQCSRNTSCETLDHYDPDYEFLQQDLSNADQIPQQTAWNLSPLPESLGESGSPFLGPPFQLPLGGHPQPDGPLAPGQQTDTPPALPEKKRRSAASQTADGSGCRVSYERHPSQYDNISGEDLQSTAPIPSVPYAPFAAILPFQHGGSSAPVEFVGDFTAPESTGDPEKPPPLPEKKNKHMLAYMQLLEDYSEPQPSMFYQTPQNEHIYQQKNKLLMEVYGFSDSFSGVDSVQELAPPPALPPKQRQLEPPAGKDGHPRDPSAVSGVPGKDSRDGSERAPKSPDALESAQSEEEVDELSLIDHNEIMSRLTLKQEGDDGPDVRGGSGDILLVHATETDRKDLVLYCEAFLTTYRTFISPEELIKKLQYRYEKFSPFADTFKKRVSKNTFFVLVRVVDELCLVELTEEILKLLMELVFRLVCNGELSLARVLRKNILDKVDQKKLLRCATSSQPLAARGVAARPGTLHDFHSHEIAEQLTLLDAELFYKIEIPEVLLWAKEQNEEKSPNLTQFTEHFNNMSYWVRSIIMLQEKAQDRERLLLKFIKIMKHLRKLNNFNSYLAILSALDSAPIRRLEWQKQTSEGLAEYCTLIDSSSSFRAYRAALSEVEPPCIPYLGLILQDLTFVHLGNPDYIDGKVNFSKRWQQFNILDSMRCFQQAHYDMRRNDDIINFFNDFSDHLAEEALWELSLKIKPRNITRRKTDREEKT
The experiment is described as follows: cell-based or functional assay.

Experiment [7] concerns the target T6, C3G full-length wild type (human, isoform a, residues 4-1077) (human, UniProt Q13905-1 4-1077).
T6 sequence (looked up): T5 sequence (looked up)
The experiment is described as follows: cell-based or functional assay.

Experiment [8] has as its target T1, CrkL, full-length (human). The experiment is described as follows: ITC; single-PRM mutants of C3G in the cell titrated with full-length CrkL or CrkL-SH3N; 25 °C; 1:1 model in SEDPHAT; N is the competent fraction of C3G. As to conditions: both partners purified.

Changes are numbered by the printed parent chain. Names may count otherwise. No end group written: not given here. fluorescein = N-terminal fluorescein probe

Broadly, the stoichiometry N is a count of units in the complex or per binding partner.

T3 sequence (P46109 whole entry W160S, the tested form may be a part): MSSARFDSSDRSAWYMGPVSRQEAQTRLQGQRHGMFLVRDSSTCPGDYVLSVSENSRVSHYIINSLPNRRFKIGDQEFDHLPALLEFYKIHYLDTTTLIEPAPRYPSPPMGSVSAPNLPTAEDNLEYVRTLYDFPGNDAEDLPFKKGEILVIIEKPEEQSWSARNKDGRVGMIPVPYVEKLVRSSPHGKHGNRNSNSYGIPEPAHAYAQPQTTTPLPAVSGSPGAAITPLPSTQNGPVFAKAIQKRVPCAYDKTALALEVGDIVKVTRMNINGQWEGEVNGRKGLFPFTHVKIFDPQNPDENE
T2 sequence (P46109 whole entry, the tested form may be a part): as the sequence (P46109 whole entry W160S, the tested form may be a part) above, with S160W counted along it

B1: C3G P1 peptide (residues 280-293), fluorescein-labeled (peptide, UniProt Q13905-1 280-293, looked up)
peptide: fluorescein-NSPPPALPPKKRQS
notes: Pro-rich motif P1 of human C3G, residues 280-293; source: synthetic peptide (custom synthesized, Thermo Scientific)
Regarding B1, the binding result in experiment [1] is “binds”.

B2: P1 (Fluo-280-293) (peptide)
peptide: fluorescein-NGPPPALPPKKRQS
notes: P1 Pro-rich motif of human C3G, residues 280-293; also called P1 peptide of C3G; source: synthetic peptide (custom synthesized, Thermo Scientific)
Turning to B2, the Kd is 1.4 µM in experiment [2] and around 490 µM in experiment [3].

B3: P2 (Fluo-450-463) (peptide)
peptide: fluorescein-TDTPPALPEKKRRS
notes: P2 Pro-rich motif of human C3G, residues 450-463; also called P2 peptide of C3G; source: synthetic peptide (custom synthesized, Thermo Scientific)
Regarding B3, the Kd in experiment [2] was 2.2 µM; in experiment [3], above 4000 µM.

B4: P4 (Fluo-605-618) (peptide)
peptide: fluorescein-LAPPPALPPKQRQL
notes: P4 Pro-rich motif of human C3G, residues 605-618; also called P4 peptide of C3G; source: synthetic peptide (custom synthesized, Thermo Scientific)
Consider B4, for which the Kd in experiment [2] is 3 µM; in experiment [3], around 415 µM.

B5: P3 (Fluo-537-550) (peptide)
peptide: fluorescein-PEKPPPLPEKKNKH
notes: P3 Pro-rich motif of human C3G, residues 537-550; also called P3 peptide of C3G; source: synthetic peptide (custom synthesized, Thermo Scientific)
Take B5: the Kd was 2.2 µM in experiment [2] and around 425 µM in experiment [3].

B6: CrkL-SH3N (residues 125-182) (domain or fragment, human, UniProt P46109 125-182, looked up)
chain: LEYVRTLYDFPGNDAEDLPFKKGEILVIIEKPEEQWWSARNKDGRVGMIPVPYVEKLV
notes: human CrkL, SH3N domain, residues 125-182, in pETEV15b; also called SH3N domain of CrkL; isolated SH3N domain; source: E. coli BL21 (DE3), purified (His-tagged, purified in a similar manner as C3G)
B6: in experiment [4], the Kd worked out at 0.8 µM and the “stoichiometry N” value was ~0.5 molecules of SH3N per molecule of C3G-AAPA-Y554H. The “stoichiometry N” value in experiment [5] was around 0.1. For the same molecule, in experiment [6], the “AC50 of the dose-response activation of the GEF activity of pC3G (0.2 µM) on Rap1b:mant-dGDP” value worked out at 12.8 µM and the “kmax of the dose-response activation of the GEF activity of pC3G (0.2 µM) on Rap1b:mant-dGDP” value was 0.0139 s^-1 µM^-1. Besides, in experiment [7], the “AC50 of the dose-response activation of the GEF activity of C3G (1 µM) on Rap1b:mant-dGDP” value is 26.8 µM and the “kmax of the dose-response activation of the GEF activity of C3G (1 µM) on Rap1b:mant-dGDP” value is 6300 M⁻¹ s⁻¹.

B7: C3G-PAAA (natural protein)
chain: T4 chain with A280P, A281P, A283L, A284P, A286K, P537A, P538A, L540A, P541A, K543A
In experiment [8], B7 gave a Kd of around 1 µM.

B8: C3G-APAA (natural protein)
chain: T4 chain with A450P, A451P, A453L, A454P, A456K, P537A, P538A, L540A, P541A, K543A
As for B8, the Kd in experiment [8] was around 1 µM.

Source of the values: paper PMC9896810, “Crk proteins activate the Rap1 guanine nucleotide exchange factor C3G by segregated adaptor-dependent and -independent mechanisms” (Cell Communication and Signaling : CCS, 2023).
